Results taken from patent US20230031280A1, “GLP-2 FUSION POLYPEPTIDES AND USES FOR TREATING AND PREVENTING GASTROINTESTINAL CONDITIONS” (SHIRE-NPS PHARMACEUTICALS, INC., priority 2017, published 2023).

Experiments:
[1] = Rat pharmacokinetics, intravenous dosing; format: in vivo, Sprague-Dawley rats; conditions: single dose 1 mg/ml
Description: (§1) In the rat, four pharmacokinetic parameters were measured for Gattex® (a GLP-2 peptide having the A2G mutation): CL, Vc, Vt and Q. The same pharmacokinetic parameters were also measured for GLP-2 peptibodies A, B, E, J, K, L, M, O and P. The data is shown in Table 4. Male Sprague-Dawley rats (3 animals per group) were injected intravenously either via a jugular vein or tail vein catheter. A singles dose of test article was injected at a dose level of 1 mg/ml. The test articles were formulated in PBS pH 7.4 at a concentration of Blood samples were taken 0.083, 0.167, 0.33, 0.5, 1, 2, 6, 24, 48, 72, 120, 168, 240, and 336 hours post dose. Blood samples were collected into heparinized tubes and centrifuged for 5 minutes at 2000 xg within 10 minutes of collection. 100 μL of plasma were transferred to a 1.5 ml Eppendorf tube containing 2 μL of 50 mM PMSF. After mixing, the plasma samples were frozen at −80° C. until analysis.

[2] = Rat pharmacokinetics, subcutaneous dosing; format: in vivo, Sprague-Dawley rats; conditions: single dose 1 mg/ml
Description: as §1, with “5.” for “4.”, “subcutaneously into the intra-scapular region of the animal.” for “intravenously either via a jugular vein or tail vein catheter.”, “[…]” for “1.5”, “mixing” for “mixing,”, “analysis. Meso Scale Discovery (MSD) ELISA was undertaken to assay for the concentration of the GLP-2 peptibodies.” for “analysis.”
A sandwich immunoassay was developed using either an anti-Human IgG1 Fc antibody or an anti-human albumin antibody for capture of the peptibody and a sulfotag labeled anti GLP-2 antibody for detection.

[3] = NanoDSF melting temperature / thermal stability; format: physicochemical; conditions: for NanoDSF melting temperature 1: first transition; for NanoDSF melting temperature 2: second transition
Description: Each of the GLP-2 peptibodies was tested by determining melting temperature with nanodifferential scanning fluorimetry (NanoDSF). NanoDSF is a measurement of protein stability over a range of temperatures, with a temperature ramp employed. The stability of tryptophan is measured by fluorescence, as reflected in a ratio of fluorescence at 350 nm to fluorescence at 330 nm. From the assay, one or more melting temperatures are determined. Because a protein in a certain state is understood to have a melting temperature, the number of melting temperatures observed reflects the number of different states.
(§2) Stability analysis was then performed using SEC-MALS and NanoDSF. For SEC-MALS, a Sepax Zenix C-150 column was used. The mobile phase buffer was 1× PBS with a final concentration of 400 mM NaCl. The flow rate was 0.8 mL per minute. 20 micrograms of total protein was injected. For NanoDSF, 10 microliters of sample was used, without normalization of the samples.
as §2

[4] = biological target: T1, hFcRn (extracellular domain of the FcRN) (Homo sapiens, UniProt P55899); test: FcRn binding by surface plasmon resonance (Biacore)
T1 construct: made in house
T1 sequence (P55899 24-297 limits assumed): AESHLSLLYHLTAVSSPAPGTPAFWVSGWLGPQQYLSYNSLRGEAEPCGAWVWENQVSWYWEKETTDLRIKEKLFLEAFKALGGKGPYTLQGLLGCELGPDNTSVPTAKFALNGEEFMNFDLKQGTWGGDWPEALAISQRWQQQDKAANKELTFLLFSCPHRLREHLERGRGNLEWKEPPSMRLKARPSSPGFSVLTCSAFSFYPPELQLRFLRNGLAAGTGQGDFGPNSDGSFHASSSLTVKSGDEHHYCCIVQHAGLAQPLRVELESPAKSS
T1 sequence (P61769 21-119 partner): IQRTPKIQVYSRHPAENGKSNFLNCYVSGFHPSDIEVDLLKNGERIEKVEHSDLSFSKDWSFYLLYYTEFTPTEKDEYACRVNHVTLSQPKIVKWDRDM
Excerpt: Binding to the Fc neonatal receptor (FcRN) allows for recycling of the molecules and leads to an extended in vivo serum half-life of the Fc fusion proteins. Recycling occurs as the molecules are passively taken into the cells and the pH of the endosomes is lower. That leads to binding of the Fc portion of the molecule to the FcRN. When the FcRN recycles back to the surface of the cell, the pH is then neutral and the protein is released back into the serum.
Binding to the extracellular domain of the FcRN was measured by surface plasmon resonance (SPR) using a Biacore system. Direct immobilization with FcRn was achieved via amine coupling of a CM5 chip with FcRn under the following conditions: • i) hFcRn (expressed and purified in house) is diluted in Acetate buffer pH 5.0 to 5 μg/mL. • ii) Immobilize 5 μg/mL of FcRn with target of 500 RU on CM5 chip in PBS pH 7.0 • iii) Final response 454 RU • iv) Running buffer: PBS-P+, pHed to 5.5
The kinetic binding study was done using the following protocol. Samples were diluted in PBS-P+ to 50, 25, 12.5, 6.25, 3.125, 1.56, 0.78, 0.39, 0 nM. The parameters were set as follows: • i) Association and Dissociation 300 s at Flow rate 30 μL/min • ii) Regeneration with 25 mM Tris, 150 mM NaCl pH 8.0 40 s at 60 μL/min
A measurement of the binding of the GLP-2 peptibodies to the Fc neonatal receptor (FcRN) was undertaken at pH 5.5 and pH 7.4.

[5] = SEC-MALS (Sepax Zenix C-150) peak distribution; format: physicochemical
Description: A SEC-MALS assay was performed to determine the primary state (main peak) and its molecular weight. […] The GLP-2 peptibody O (albumin fusion) eluted at a molecular weight indicative of a monomer.
as §2, §2

[6] = Table 7 (Example 6), 0.5 mg/mL sample
[7] = Table 7 (Example 6), 1.5 mg/mL sample
[8] = Table 7 (Example 6), 5 mg/mL sample
[9] = Table 7 (Example 6), 7.5 mg/mL sample

With `CC[C@H](C)[C@H](NC(=O)[C@H](Cc1ccccc1)NC(=O)[C@H](CC(=O)O)NC(=O)[C@H](CCCNC(=N)N)NC(=O)[C@H](C)NC(=O)[C@H](C)NC(=O)[C@H](CC(C)C)NC(=O)[C@H](CC(N)=O)NC(=O)[C@H](CC(=O)O)NC(=O)[C@H](CC(C)C)NC(=O)[C@@H](NC(=O)[C@@H](NC(=O)[C@H](CC(N)=O)NC(=O)[C@H](CCSC)NC(=O)[C@H](CCC(=O)O)NC(=O)[C@H](CC(=O)O)NC(=O)[C@H](CO)NC(=O)[C@H](Cc1ccccc1)NC(=O)[C@H](CO)NC(=O)CNC(=O)[C@H](CC(=O)O)NC(=O)CNC(=O)[C@@H](N)Cc1c[nH]cn1)[C@@H](C)O)[C@@H](C)CC)C(=O)N[C@@H](CC(N)=O)C(=O)N[C@@H](Cc1c[nH]c2ccccc12)C(=O)N[C@@H](CC(C)C)C(=O)N[C@H](C(=O)N[C@@H](CCC(N)=O)C(=O)N[C@H](C(=O)N[C@@H](CCCCN)C(=O)N[C@H](C(=O)N[C@H](C(=O)N[C@@H](CC(=O)O)C(=O)O)[C@@H](C)O)[C@@H](C)CC)[C@@H](C)O)[C@@H](C)CC` [Gattex] the clearance ([1]; male, Sprague-Dawley, plasma) was 1390 mL/h/kg, the Vc [1] was 2,235 mL/kg and the CL [2] was 51,649 mL/day/kg. The Vc [2] was 1,794 mL/kg.
With “GLP-2 peptibody A: GLP-2[A2G] fused without linker to IgG1 Fc (LALA); SEQ ID NO: 13” the “NanoDSF melting temperature 1” value [3] was 1 = 67.0 °C, the “NanoDSF melting temperature 2” value [3] was 2 = 80 °C and the CL [1] was 2.37 mL/h/kg. It also gave a Q [1] of 2.42 mL/h/kg, a Vc [1] of 43 mL/kg and a Vt [1] of 0.079 L/kg. The Kd ([4]; pH 5.5) was 1.38 nM, the “FcRN KD at pH 7.4” value [4] was “No binding in range tested” and the CL [2] was 70.7 mL/day/kg. The Q [2] was 3.25 mL/h/kg, the Vc [2] was 109 mL/kg and the Vt [2] was 0.081 L/kg. The ka [2] was “A (0.45 ka/day,”.
In the case of “GLP-2 peptibody B264: GLP-2[A2G]-GGGGG linker-IgG1 Fc (LALA) without C-terminal lysine; SEQ ID NO: 1”, the “Thermal Stability (NanoDSF) 1” value ([3]; Table 6, 0.5 mg/mL sample) is reported as 1 = 67.1 °C, the “Thermal Stability (NanoDSF) 2” value ([3]; Table 6, 0.5 mg/mL sample) is reported as 2 = 75.2 °C and the “Thermal Stability (NanoDSF) 1” value ([3]; Table 6, 1.5 mg/mL sample) is reported as 1 = 67.0 °C. For the same compound, the “Thermal Stability (NanoDSF) 2” value ([3]; Table 6, 1.5 mg/mL sample) was 2 = 74.8 °C, the “Thermal Stability (NanoDSF) 1” value ([3]; Table 6, 5 mg/mL sample) was 1 = 67.2 °C and the “Thermal Stability (NanoDSF) 2” value ([3]; Table 6, 5 mg/mL sample) was 2 = 75.0 °C. For the same compound, the “Thermal Stability (NanoDSF) 1” value ([3]; Table 6, 11 mg/mL sample) was 1 = 67.5 °C, the “Thermal Stability (NanoDSF) 2” value ([3]; Table 6, 11 mg/mL sample) was 2 = 74.7 °C and the “Thermal Stability (NanoDSF) 1” value [3, 6] was 1 = 67.6 °C. For the same compound, the “Thermal Stability (NanoDSF) 2” value [3, 6] was 2 = 80.2 °C, the “Thermal Stability (NanoDSF) 1” value [3, 7] was 1 = 67.6 °C and the “Thermal Stability (NanoDSF) 2” value [3, 7] was 2 = 80.2 °C. For the same compound, the “Thermal Stability (NanoDSF) 1” value [3, 8] was 1 = 67.7 °C, the “Thermal Stability (NanoDSF) 2” value [3, 8] was 2 = 80.7 °C and the “Thermal Stability (NanoDSF) 1” value [3, 9] was 1 = 67.8 °C. The “Thermal Stability (NanoDSF) 2” value [3, 9] was 2 = 80.4 °C, the “SEC LMW” value ([5]; Table 6, 0.5 mg/mL sample) was 17.2% LMW and the “SEC Main Peak” value ([5]; Table 6, 0.5 mg/mL sample) was 82.8% Main Peak. For the same compound, the “SEC HMW” value ([5]; Table 6, 1.5 mg/mL sample) was 2.1% HMW, the “SEC LMW” value ([5]; Table 6, 1.5 mg/mL sample) was 20.8% LMW and the “SEC Main Peak” value ([5]; Table 6, 1.5 mg/mL sample) was 77.2% Main Peak. The “SEC HMW” value ([5]; Table 6, 5 mg/mL sample) was 2% HMW, the “SEC LMW” value ([5]; Table 6, 5 mg/mL sample) was 20.1% LMW and the “SEC Main Peak” value ([5]; Table 6, 5 mg/mL sample) was 77.9% Main Peak. For the same compound, the “SEC HMW” value ([5]; Table 6, 11 mg/mL sample) was 2.1% HMW, the “SEC LMW” value ([5]; Table 6, 11 mg/mL sample) was 17.4% LMW and the “SEC Main Peak” value ([5]; Table 6, 11 mg/mL sample) was 80.5% Main Peak. The “SEC HMW” value [5, 6] was 2.9% HMW, the “SEC LMW” value [5, 6] was 19.7% LMW and the “SEC Main Peak” value [5, 6] was 77.4% Main Peak. The “SEC LMW” value [5, 7] was 21.4% LMW, the “SEC Main Peak” value [5, 7] was 78.6% Main Peak and the “SEC LMW” value [5, 8] was 20.8% LMW. The “SEC Main Peak” value [5, 8] was 79.2% Main Peak, the “SEC LMW” value [5, 9] was 19.9% LMW and the “SEC Main Peak” value [5, 9] was 80% Main Peak.
With “GLP-2 peptibody L: GLP-2[A2G]-GGGGGGG linker-IgG1 Fc (LALA); SEQ ID NO: 22” the “NanoDSF melting temperature 1” value [3] was 1 = 67.5 °C, the “NanoDSF melting temperature 2” value [3] was 2 = 80 °C and the “SEC-MALS Zenix C-150 main peak” value [5] was 87.4% main peak, 148,000 g/mol. The CL [1] was 2.8 mL/h/kg, the Q [1] was 0.792 mL/h/kg and the Vc [1] was 37.8 mL/kg. The Vt [1] was 0.538 L/kg, the Kd ([4]; pH 5.5) was 1.72 nM and the “FcRN KD at pH 7.4” value [4] was “No binding in range tested”. For the same compound, the CL [2] was 80.6 mL/day/kg, the Vc [2] was 127 mL/kg and the ka [2] was “L (0.63 ka/day,”.
For “GLP-2 peptibody M: GLP-2[A2G]-GGGGSGGGGS linker-IgG1 Fc (LALA); SEQ ID NO: 25”, the “NanoDSF melting temperature 1” value [3] was 1 = 67.3 °C, the “NanoDSF melting temperature 2” value [3] was 2 = 79.9 °C and the “SEC-MALS Zenix C-150 main peak” value [5] was 81.4% main peak, 148,500 g/mol. For the same compound, the CL [1] was 1.6 mL/h/kg, the Q [1] was 7.62 mL/h/kg and the Vc [1] was 12 mL/kg. For the same compound, the Vt [1] was 0.0294 L/kg, the Kd ([4]; pH 5.5) was 1.81 nM and the “FcRN KD at pH 7.4” value [4] was “No binding in range tested”. The CL [2] was 60.2 mL/day/kg, the Vc [2] was 91.5 mL/kg and the ka [2] was “M (0.78 ka/day,”.
With “GLP-2 peptibody O: fusion protein between GLP-2, a linker, and amino acids 25-609 of human serum albumin; SEQ ID NO: 28” the “NanoDSF melting temperature 1” value [3] was 1 = 57.6 °C, the “SEC-MALS Zenix C-150 main peak” value [5] was 89.5% main peak, 76,500 g/mol and the CL [1] was 5.42 mL/h/kg. It also gave a Q [1] of 57.5 mL/h/kg, a Vc [1] of 43.2 mL/kg and a Vt [1] of 0.054 L/kg. The “FcRN KD at pH 5.5” value ([4]; pH 5.5) was “substantially higher KD”, the Kd ([4]; pH 5.5) was 1370 nM and the “FcRN KD at pH 7.4” value [4] was “No binding in range tested”. For the same compound, the CL [2] was 742 mL/day/kg, the Vc [2] was 565 mL/kg and the ka [2] was “O (1.26 ka/day,”.
Compound “GLP-2 peptibody P: fusion of GLP-2, a linker that is also a GLP-2 sequence, and human serum albumin 25-609; SEQ ID NO: 30” has a CL [1] of 7.08 mL/h/kg, a Q [1] of 29.5 mL/h/kg and a Vc [1] of 38.4 mL/kg. For the same compound, the Vt [1] was 0.0439 L/kg.
